Assay results published in publication PMC3936712.
Read-outs that look alike come from different tables or passages of the source.

How the values were obtained:
Test in all cases: fluorescence anisotropy
[1] = target: T1, jRdRp (NS5 RdRp module, wt) (Japanese encephalitis virus strain …, UniProt O90417 2799-3432)
[2] = target: T1, jRdRp (NS5 RdRp module, wt); remark: listed apart in the source
[3] = target: T1, jRdRp (NS5 RdRp module, wt); remark: listed apart in the source

B1: 10mer ssRNA (FR10) (ssRNA)
RNA: AUAAACUUCU
With B1 the Kd [1] was 33.9 ± 0.6 nM, the Kd [2] was 39.3 ± 2.3 nM and the Kd [3] was 40.4 ± 2.1 nM.
